According to patent US7419670B2, “Method of treating arthritis with SERP-1 and an immunosuppressant” (Viron Therapeutics, Inc., priority 2000, dated 2008):

Columns and labels:
[1] = test system: Collagen-induced Arthritis (CIA) in Rats; assay: CIA in rats: blinded radiographic scoring of the ankle joint at study termination; type: in vivo, rats (Louvain); conditions: mean ± SD; control group 4.27±1.68; p=0.02
Experimental: Twenty four rats (Louvain) weighing 125-150 g were housed at the UCLA vivarium facility and were fed standard laboratory chow and water.
Type II collagen, (CII) was prepared by pepsin treatment of chick sternal cartilage or was purchased from Genzyme (Boston, Mass.). Rats were anesthetized with ether and were immunized intradermally at several sites on the back, with 0.5 mg native CII solubilized in 0.1M acetic acid and emulsified in FIA (Difco, Detroit, Mich.). The signs and symptoms of rheumatoid arthritis developed over a period of ten days after immunization with collagen. (Oliver and Brahn, (1996) J. Rheumatol. 23, S44-56-60, incorporated herein by reference).
Cyclosporin at (4 mg/kg/d; sc) was administered by osmotic pump for the duration of the study. […]
The incidence and severity of chronic arthritis in SERP-1/CsA treated and untreated rats was evaluated via a number of study endpoints. During the experimental phase of the study, the individual hind limbs of each rat was evaluated daily and arthritis severity was quantified by assigning a score (0=normal, 4=maximum/hindpaw) based on increasing levels of swelling and periarticular erythema. The daily, arthritic severity scores for each rat were recorded from disease onset (day 10) until study termination (Table 1). […]

[2] = test system: intimal fatty cellular proliferation associated with restenosis; conditions: rabbits following balloon angioplasty; cited from earlier work

B1: SERP-1: viral serine protease inhibitor produced by malignant rabbit fibroma virus and myxoma virus; sequence of SEQ ID NO: 1 (protein, listed as Myxoma virus)
chain: MKYLVLVLCLTSCACRDIGLWTFRYVYNESDNVVFSPYGLTSALSVLRIAAGGNTKREIDVPESVVEDSDAFLALRELFVDASVPLRPEFTAEFSSRFNTSVQRVTFNSENVKDVINSYVKDKTGGDVPRVLDASLDRDTKMLLLSSVRMKTSWRHVFDPSFTTDQPFYSGNVTYKVRMMNKIDTLKTETFTLRNVGYSVTELPYKRRQTAMLLVVPDDLGEIVRALDLSLVRFWIRNMRKDVCQVVMPKFSVESVLDLRDALQRLGVRDAFDPSRADFGQASPSNDLYVTKVLQTSKIEADERGTTASSDTAITLIPRNALTAIVANKPFMFLIYHKPTTTVLFMGTITKGEKVIYDTEGRDDVVSSV
- joint erosions (radiographic score) [1]: 2.58±1.88
- intimal fatty cellular proliferation associated with restenosis [2]: decrease
